Common to all, as to test: fluorescence polarisation
(Polarisation of emitted light reports the rotation of a fluorescent probe.)

In assay [1] the target is T1, Paramecium calmodulin N-domain fragment (CaM_(1-80)) (Paramecium, UniProt P07463 2-81).
Assay [2] deals with T2, Paramecium calmodulin C-domain fragment (CaM_(76-148)) (Paramecium, UniProt P07463 77-149).
For assay [3], the target named is T3, Paramecium calmodulin, full-length (CaM_(1-148)) (Paramecium, UniProt P07463 1-149).
The target of assay [4] is T1, Paramecium calmodulin N-domain fragment …. The source holds these as a separate data set.
The target of assay [5] is T2, Paramecium calmodulin C-domain fragment …. This is another data set of the same source.
Assay [6] addresses T3, Paramecium calmodulin, full-length …. The source holds these as a separate data set.

Where two headings read alike, the source gives them in different places. No end group written: not given here. *: point of attachment. FITC = O=C1OC2(c3ccc(O)cc3Oc3cc(O)ccc32)c2ccc(NC(=S)*)cc21 Where only a bound is given, the exact number is not on record here.

By Kd is commonly meant a measure of binding affinity in units of concentration.

B1: Fl-βCaNp, fluorescein-labelled peptide representing residues 400-423 of the CaNA subunit of the β-isoform of calcineurin (peptide)
peptide: {FITC}-ARKEIIRNKIRAIGKMARVFSVLR
Regarding B1, the equilibrium dissociation constant (Kd) was 600 µM in assay [1]; 44.1 µM in assay [2]; 25 µM in assay [3]; 7.06 µM in assay [4]; 0.96 µM in assay [5]; no more than 0.001 µM in assay [6].

For the origin of these results see publication PMC3057930 (Proteins, 2010).
